From publication PMC9034101, “Enzymatic analysis of WWP2 E3 ubiquitin ligase using protein microarrays identifies autophagy-related substrates” (The Journal of Biological Chemistry, 2022)

Target: T1, WWP2 WT (human, UniProt O00308 1-870)
T1 construct: called the ~100 kDa WWP2 protein; Unlabelled WWP2 titrated in the fluorescence anisotropy assays; also called WT WWP2; source: E. coli (BL-21 (DE3) Codon+ or BL21 Rosetta (DE3) pLysS), purified (glutathione agarose, GST removed, size exclusion)
Assay: fluorescence polarisation; fluorescence anisotropy; 100 nM fluorescein-labeled WBP2, WWP2 titrated; 23 °C; quadratic binding fit
Settings: both partners purified

T1 sequence (O00308 whole entry): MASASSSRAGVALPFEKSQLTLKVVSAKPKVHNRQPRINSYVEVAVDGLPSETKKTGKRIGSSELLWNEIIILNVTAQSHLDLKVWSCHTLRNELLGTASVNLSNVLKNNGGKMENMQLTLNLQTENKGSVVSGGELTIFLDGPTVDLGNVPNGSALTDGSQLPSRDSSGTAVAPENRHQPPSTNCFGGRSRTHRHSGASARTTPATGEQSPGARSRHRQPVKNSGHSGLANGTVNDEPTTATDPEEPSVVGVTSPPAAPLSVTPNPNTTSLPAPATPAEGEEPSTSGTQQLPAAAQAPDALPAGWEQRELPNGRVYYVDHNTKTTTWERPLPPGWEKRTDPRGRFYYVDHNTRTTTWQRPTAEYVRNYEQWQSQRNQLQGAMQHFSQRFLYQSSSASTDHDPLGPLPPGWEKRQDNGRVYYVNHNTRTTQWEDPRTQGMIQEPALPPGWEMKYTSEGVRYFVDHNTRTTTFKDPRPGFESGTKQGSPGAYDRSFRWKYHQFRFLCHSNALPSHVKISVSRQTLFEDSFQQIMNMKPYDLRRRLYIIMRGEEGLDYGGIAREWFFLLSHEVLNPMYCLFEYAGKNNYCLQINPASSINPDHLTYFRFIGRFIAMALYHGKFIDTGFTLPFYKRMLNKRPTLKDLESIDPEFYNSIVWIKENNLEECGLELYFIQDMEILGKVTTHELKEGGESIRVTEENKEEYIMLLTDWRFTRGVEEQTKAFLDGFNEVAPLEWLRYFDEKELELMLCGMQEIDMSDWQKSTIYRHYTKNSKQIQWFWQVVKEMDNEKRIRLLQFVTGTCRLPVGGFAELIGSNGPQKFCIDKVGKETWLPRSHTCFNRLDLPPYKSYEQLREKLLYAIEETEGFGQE

Kd: 3.7 µM
B1: Fluorescein N-terminal-labeled WBP2 (aa. 149-261) (domain or fragment, human, UniProt Q969T9 149-261, looked up)
chain: PSGAYVYPPPVANGMYPCPPGYPYPPPPPEFYPGPPMMDGAMGYVQPPPPPYPGPMEPPVSGPDVPSTPAAEAKAAEAAASAYYNPGNPHNVYMPTSQPPPPPYYPPEDKKTQ
modifications: fluorescein (5/6-carboxyfluorescein, FAM) on the N-terminus
notes: WBP2, human, aa; 149-261, from pET28b-WBP2; Labelled 'with a similar procedure as that used for WWP2' (N-terminal Cys after protease cleavage), so an N-terminal Cys and loss of the tag may apply; also called FAM labeled WBP2; fluorescein-labeled WBP2; source: E. coli Rosetta pLysS, purified (Ni-NTA, Superdex 75), fluorescein labelled
